Legend:
[1] = target: A110 (SEQ ID NOs: 41 & 17) (Homo sapiens (Human), UniProt P0DOX7 1-214); assay: BLI (Octet RED96), affinity-purified antagonist captured on biosensor, ligand in solution
Description: (§1) In this example, the human ligand binding activities of several bifunctional antagonist molecules were measured by biolayer interferometry (BLI) using Octet RED96 (FortéBIO, Pall Corporation, USA). Binding analysis was performed by capturing the polypeptide bifunctional antagonists to biosensors. To measure the rate of association and dissociation, the bifunctional antagonists-captured biosensors were dipped in wells containing different concentrations of ligands (such as TNF-α, Activin A, Activin B, Activin AB, myostatin, and GDF-11) diluted in 1× kinetic buffer for 10 min followed by 10-20 min in 1× kinetic buffer. The bifunctional polypeptide antagonists-captured sensors were also submerged in wells containing 1× kinetic buffer to allow single reference subtraction in order to compensate for natural dissociation of the captured bifunctional antagonists. The binding sensorgrams were collected using the 8-channel detection mode on the biosensor. Data were acquired and analyzed using the FortéBIO data acquisition software v11.1 (FortéBIO, Pall Corporation, USA).

[2] = target: A109 (SEQ ID NOs: 39 & 17) (Homo sapiens (Human), UniProt P0DOX7 1-214); assay: as above
Description: as §1

Kd [1]: ~0.16 nM
Kd [2]: ~0.52 nM
B1: human Activin A (ligand)
chain: GLECDGKVNICCKKQFFVSFKDIGWNDWIIAPSGYHANYCEGECPSHIAGTSGSSLSFHSTVINHYRMRGHSPFANLKSCCVPTKLRPMSMLYYDDGQNIIKKDIQNMIVEECGCS
modifications: Activin A is a disulfide-linked homodimer of two identical inhibin beta A chains. The chain is given once.

From US20230391863A1 (published 2023)
